Results as given in PMC8727950.

Target: honey bee (Apis mellifera) vitellogenin, full-length hemolymph Vg (honey bee (Apis mellifera)) (UniProt Q868N5)
Experiment: native gel or EMSA; BN-PAGE of purified Vg, two different amounts loaded; precast 3-12% acrylamide gels, 4 °C, 2 h at 150 V; no reducing agent in loading buffer or gel; monomer to dimer

In the case of “honey bee (Apis mellifera) vitellogenin, full-length hemolymph Vg (from UniProt Q868N5 17-1770) (natural protein)”, the stoichiometry N is reported as 2.
